Numbering of substitutions follows the chain as printed.
T1: human TNFR1 on MRC-5 cells (human, UniProt P19438 30-455)
T1 sequence (looked up): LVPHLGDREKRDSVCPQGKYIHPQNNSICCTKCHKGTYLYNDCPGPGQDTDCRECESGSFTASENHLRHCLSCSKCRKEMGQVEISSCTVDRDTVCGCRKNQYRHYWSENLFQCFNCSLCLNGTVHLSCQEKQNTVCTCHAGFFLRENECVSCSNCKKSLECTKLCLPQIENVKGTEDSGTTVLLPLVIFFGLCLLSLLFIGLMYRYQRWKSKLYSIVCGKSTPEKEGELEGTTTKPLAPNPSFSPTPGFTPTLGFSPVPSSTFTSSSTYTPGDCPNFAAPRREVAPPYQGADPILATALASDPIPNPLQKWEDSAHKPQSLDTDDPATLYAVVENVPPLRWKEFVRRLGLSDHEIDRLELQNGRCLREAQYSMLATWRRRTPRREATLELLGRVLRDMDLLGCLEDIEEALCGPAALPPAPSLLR

T2: human TNFR1 (recombinant, R&D Systems cat no. 636-R1/CF, biotinylated) (human, UniProt P19438 30-211, limits assumed, biotinylated with EZ-Link NHS-LC-LC-biotin)
T2 construct: it is not tied to the BIAcore reagent; also called p55; hTNFR1
T2 sequence (looked up): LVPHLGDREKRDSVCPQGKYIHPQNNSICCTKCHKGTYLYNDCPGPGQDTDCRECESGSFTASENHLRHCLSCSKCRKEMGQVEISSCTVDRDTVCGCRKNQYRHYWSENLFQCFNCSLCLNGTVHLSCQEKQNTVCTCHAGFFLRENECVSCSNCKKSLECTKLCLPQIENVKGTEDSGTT

T3: mouse TNFR1 (recombinant, R&D Systems cat no. 425-R1-050/CF, biotinylated) (mouse, UniProt P25118 22-212, biotinylated with EZ-Link NHS-LC-LC-biotin)
T3 construct: also called murine TNFR1; biotinylated mouse TNFR1
T3 sequence (looked up): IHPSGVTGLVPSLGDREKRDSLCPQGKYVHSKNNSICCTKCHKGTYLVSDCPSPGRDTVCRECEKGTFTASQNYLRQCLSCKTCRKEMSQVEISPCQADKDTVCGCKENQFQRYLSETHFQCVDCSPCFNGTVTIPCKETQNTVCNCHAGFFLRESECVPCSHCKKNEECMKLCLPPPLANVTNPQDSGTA

T4: Cynomologus monkey TNFR1 on CYNOM-K1 cells (Cynomolgus monkey, UniProt Q2PFV5 30-455)
T4 sequence: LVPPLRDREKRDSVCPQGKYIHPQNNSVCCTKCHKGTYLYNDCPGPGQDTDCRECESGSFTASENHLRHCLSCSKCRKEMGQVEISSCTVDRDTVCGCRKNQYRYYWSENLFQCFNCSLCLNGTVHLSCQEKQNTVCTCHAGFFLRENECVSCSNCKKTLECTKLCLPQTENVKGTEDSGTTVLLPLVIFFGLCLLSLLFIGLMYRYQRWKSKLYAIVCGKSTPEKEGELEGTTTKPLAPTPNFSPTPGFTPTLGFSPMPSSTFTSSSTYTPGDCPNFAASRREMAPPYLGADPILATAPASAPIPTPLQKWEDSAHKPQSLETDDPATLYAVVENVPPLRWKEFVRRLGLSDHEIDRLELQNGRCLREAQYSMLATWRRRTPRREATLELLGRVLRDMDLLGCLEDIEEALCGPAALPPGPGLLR

T5: mouse TNFR1 on L929 cells (mouse, UniProt P25118 30-454)
T5 sequence (looked up): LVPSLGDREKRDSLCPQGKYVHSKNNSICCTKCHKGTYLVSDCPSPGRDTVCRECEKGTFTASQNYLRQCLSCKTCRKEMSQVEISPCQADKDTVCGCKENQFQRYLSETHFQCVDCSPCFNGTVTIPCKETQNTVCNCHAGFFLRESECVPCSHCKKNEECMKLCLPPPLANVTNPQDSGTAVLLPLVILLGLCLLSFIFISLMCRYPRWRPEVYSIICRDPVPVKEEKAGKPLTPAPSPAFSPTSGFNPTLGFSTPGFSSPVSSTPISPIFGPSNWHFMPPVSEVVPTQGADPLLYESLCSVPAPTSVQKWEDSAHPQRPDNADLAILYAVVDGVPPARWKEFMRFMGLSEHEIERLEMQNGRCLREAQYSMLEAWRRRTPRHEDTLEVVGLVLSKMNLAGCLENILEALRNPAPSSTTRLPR

B1: DMS0186 (bispecific antibody)
chain: EVQLLESGGGLVQPGGSLRLSCAASGFTFVKYSMGWVRQAPGKGPEWVSQISNTGDRTYYADSVKGRFTISRDNSKNTLYLQMNSLRAEDTAVYYCAIYTGRWEPFDYWGQGTLVTVSSASTDIQMTQSPSSLSASVGDRVTITCRASRPIGTMLSWYQQKPGKAPKLLILFGSRLQSGVPSRFSGSGSGTDFTLTISSLQPEDFATYYCAQAGTHPTTFGQGTKVEIKRAAAEQKLISEEDLN
notes: anti-TNFR1 dAb / AlbudAb in-line fusion
B2: DMS0184 (bispecific antibody)
chain: EVQLLESGGGLVQPGGSLRLSCAASGFTFVKYSMGWVRQAPGKGPEWVSQISNTGDRTYYADSVKGRFTISRDNSKNTLYLQMNSLRAEDTAVYYCAIYTGRWEPFDYWGQGTLVTVSSASTSGPSDIQMTQSPSSLSASVGDRVTITCRASRPIGTTLSWYQQKPGKAPKLLIWFGSRLQSGVPSRFSGSGSGTDFTLTISSLQPEDFATYYCAQAGTHPTTFGQGTKVEIKR
notes: as for B1
B3: DMS0188 (bispecific antibody)
chain: EVQLLESGGGLVQPGGSLRLSCAASGFTFVKYSMGWVRQAPGKGPEWVSQISNTGDRTYYADSVKGRFTISRDNSKNTLYLQMNSLRAEDTAVYYCAIYTGRWEPFDYWGQGTLVTVSSASTSGPSDIQMTQSPSSLSASVGDRVTITCRASRPIGTMLSWYQQKPGKAPKLLILFGSRLQSGVPSRFSGSGSGTDFTLTISSLQPEDFATYYCAQAGTHPTTFGQGTKVEIKRAAAEQKLISEEDLN
notes: as for B1
B4: DMS0163 (bispecific antibody)
chain: B3 chain with F176A, G177F
notes: as for B1
B5: DOM1h-574-72 (other)
VH: EVQLLESGGGLVQPGGSLRLSCAASGFTFVKYSMGWVRQAPGKGLEWVSQISNTADRTYYAHSVKGRFTISRDNSKNTLYLQMNSLRAEDTAVYYCAIYTGRWVPFEYWGQGTLVTVSS
notes: VH dAb; expressed in E. coli, purified on Protein A
B6: DOM1h-574-109 (other)
VH: B5 VH with N53D
notes: VH dAb
B7: DOM1h-574-133 (other)
VH: B5 VH with N53D, A61D, V104E, E107V
notes: VH dAb
B8: DOM1h-574-135 (other)
VH: B5 VH with N53D, A61T
notes: VH dAb
B9: DOM1h-574-138 (other)
VH: B5 VH with V30F, N53D, V104A
notes: VH dAb
B10: DOM1h-574-155 (other)
VH: B5 VH with V30L, N53D
notes: VH dAb

The binders below were run against T1, human TNFR1 on MRC-5 cells (assay: cell-based or functional assay).

Binder	ND50 (MRC5)
B1	20 nM
B2	19 nM
B3	17 nM
B4	12 nM

What follows are binders tested against T2, human TNFR1 (recombinant, R&D Systems …) (assay: BIAcore T100, biotinylated human TNFR1 on chip).
Procedure: Furthermore, the affinity and potency of the purified fusion molecules were determined using a BIAcore T100 and the MRC5 cell assay, respectively. The BIAcore T100 is a highly sensitive BIAcore version ideally suited for determination of high affinity binders (Papalia et al., Anal Biochem. 359, p 112 (2006)). Biotinylated, human TNFR1 was coated on the chip and each of the twelve AlbudAb fusions were passed over this surface at four different concentrations (2, 10, 50 and 250 nM). […] This improvement is observed regardless of the AlbudAb used for pairing and largest for the pairings with DOM7h-14-18. A second experiment used to establish if the different pairings affected the functional activity of the anti-TNFR1 dAb was the MRC5 cell assay (Table 8). A more marked difference between the pairings is observed in the MRC5 assay, in which the best potencies are observed in pairings with DOM7h-11-3 and DOM7h-11-12 while pairings with DOM7h-14-10 (DMS0117) lead to significant decreases in potency.

Binder	Kd	koff	kon
B5	0.53 nM	0.00011 s⁻¹	200000 M⁻¹ s⁻¹

What follows are binders tested against T6, mouse serum albumin (MSA, Sigma-Aldrich) (mouse, UniProt P07724 25-608) (assay: BIAcore, MSA on CM5 chip).
T6 construct: also called mouse albumin
Procedure: (§1) FIG. 22. BIAcore analysis for binding of DOM0100-AlbudAb in-line fusions to mouse serum albumin (MSA). MSA (Sigma-Aldrich) was coated on a BIAcore CM5 chip using EDC/NHS chemistry according to manufacturer's instructions. Subsequently, the DMS constructs, each consisting N-terminally to C-terminally of an anti-TNFR1 dAb-Linker-AlbudAb and identified in Table 6, were injected at 1 μM over the MSA surface and binding was monitored. […] The corresponding BIAcore trace for each DMS clone is indicated with an arrow.
After expression and purification, all constructs were tested on the BIAcore for binding to both mouse and human serum albumin. The off-rates were determined and used to discriminate between the AlbudAbs for their suitability in prolonging the half-life of the fusion molecule. Whereas the linker had little influence on the affinity of the AlbudAb for albumin, a significant difference existed between the dAbs and their albumin affinity. The best AlbudAb for mouse binding was DOM7h-11-15 followed by DOM7m-16 and DOM7h-11-12 (FIG. 22).

Binder	koff
B1	0.08 s⁻¹
B2	0.72 s⁻¹
B3	0.08 s⁻¹
B4	0.0062 s⁻¹

What follows are binders tested against T3, mouse TNFR1 (recombinant, R&D Systems …) (assay: BIAcore, mouse TNFR1 on SA chip).
Source text: (§2) BIAcore was done to determine the association and dissociation rates of the different dAbs and in that way establish their binding affinity for both human and mouse TNFR1. Experiments were done using biotinylated TNFR1 (R&D Systems), of the respective species, coupled to streptavidin-coated BIAcore chips followed by injection of a concentration range of the dAbs.

Binder	Kd	koff	kon
B5	6.9 nM	0.00068 s⁻¹	100000 M⁻¹ s⁻¹
B6	2.8 nM	0.00033 s⁻¹	120000 M⁻¹ s⁻¹
B7	5.2 nM	0.00075 s⁻¹	140000 M⁻¹ s⁻¹
B8	3.8 nM	0.00045 s⁻¹	110000 M⁻¹ s⁻¹
B9	2.4 nM	0.0003 s⁻¹	130000 M⁻¹ s⁻¹
B10	3.7 nM	0.00033 s⁻¹	110000 M⁻¹ s⁻¹

Biological target: T1, human TNFR1 on MRC-5 cells
Assay: cell-based or functional assay
Remark: another data set of the same source

Binder	MRC5 (ND50 in nM)
B5	2.7 nM

These binders were tested against T2, human TNFR1 (recombinant, R&D Systems …) (assay: BIAcore, human TNFR1 on SA chip).
Source text: as §2

Binder	Kd	koff	kon
B5	0.35 nM	8.4e-05 s⁻¹	250000 M⁻¹ s⁻¹
B6	0.23 nM	5.5e-05 s⁻¹	240000 M⁻¹ s⁻¹
B7	0.34 nM	8.8e-05 s⁻¹	260000 M⁻¹ s⁻¹
B8	0.21 nM	5.2e-05 s⁻¹	250000 M⁻¹ s⁻¹
B9	0.15 nM	3.8e-05 s⁻¹	250000 M⁻¹ s⁻¹
B10	0.18 nM	4.3e-05 s⁻¹	240000 M⁻¹ s⁻¹

The binders below were run against T4, Cynomologus monkey TNFR1 on CYNOM-K1 … (assay: cell-based or functional assay).

Binder	Cynomologus CYNOM-K1 ND50
B5	2.3 nM
B6	2.3 nM
B7	1.7 nM
B8	1.5 nM
B9	1.2 nM
B10	1.6 nM

Biological target: T1, human TNFR1 on MRC-5 cells
Assay: cell-based or functional assay
Remark: another data set of the same source

Binder	Human MRC5 ND50
B5	2.7 nM
B6	1.8 nM
B7	2.1 nM
B8	1.8 nM
B9	1.4 nM
B10	2.1 nM

Each binder was assayed against T5, mouse TNFR1 on L929 cells (assay: cell-based or functional assay).

Binder	Mouse L929 ND50
B5	46 nM
B6	20 nM
B7	110 nM
B8	47 nM
B9	23 nM
B10	67 nM

Each binder was assayed against T7, human serum albumin (HSA, Sigma-Aldrich) (human, UniProt P02768 25-609) (assay: BIAcore, HSA on CM5 chip).
T7 construct: also called human albumin
Procedure: as §1, with “23.” for “22.”, “human” for “mouse”, “(HSA). HSA” for “(MSA). MSA”, “HSA” for “MSA”

T7 sequence (P02768 25-609 limits assumed): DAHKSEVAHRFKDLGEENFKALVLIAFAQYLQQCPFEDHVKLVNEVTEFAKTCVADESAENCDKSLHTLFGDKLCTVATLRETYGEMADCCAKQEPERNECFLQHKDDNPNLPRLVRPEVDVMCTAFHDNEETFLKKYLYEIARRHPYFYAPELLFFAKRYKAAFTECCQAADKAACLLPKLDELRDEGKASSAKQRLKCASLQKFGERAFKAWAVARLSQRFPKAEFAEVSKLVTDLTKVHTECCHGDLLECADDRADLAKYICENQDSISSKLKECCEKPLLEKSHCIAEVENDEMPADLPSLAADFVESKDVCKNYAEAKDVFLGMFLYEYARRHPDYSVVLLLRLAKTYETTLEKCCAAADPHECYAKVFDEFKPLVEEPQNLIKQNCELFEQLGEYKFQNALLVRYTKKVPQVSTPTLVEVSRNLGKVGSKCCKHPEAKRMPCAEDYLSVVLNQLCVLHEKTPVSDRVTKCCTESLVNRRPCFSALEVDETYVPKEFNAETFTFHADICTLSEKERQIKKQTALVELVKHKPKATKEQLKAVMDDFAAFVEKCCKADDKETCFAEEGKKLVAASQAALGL

Binder	koff
B1	0.12 s⁻¹
B2	0.16 s⁻¹
B3	0.12 s⁻¹
B4	0.0024 s⁻¹

From US20120107330A1 (published 2012)
